Laboratory results reported in paper PMC11947617, “Fine‐tuned interactions between globular and disordered regions of single‐stranded DNA binding (SSB) protein are required for dynamic condensation under physiological conditions” (Protein Science : A Publication of the Protein Society, 2025).
No end group written: not given here. fluorescein = fluorescein label

Target: T1, Escherichia coli single-stranded DNA binding (SSB) protein, wild type (E. coli, UniProt P0AGE0 1-178)
T1 construct: E. coli SSB, wild type; OB domain aa 1-112, IDL aa 113-177 with the CTP aa 169-177; homotetramer of 19-kDa subunits; Construct as described in Harami et al. (2020); also called SSB-WT; WT; source: E. coli ER2566, purified (Polymin P, ammonium sulfate, heparin, MonoQ)
T1 sequence (P0AGE0 whole entry, the tested form may be a part): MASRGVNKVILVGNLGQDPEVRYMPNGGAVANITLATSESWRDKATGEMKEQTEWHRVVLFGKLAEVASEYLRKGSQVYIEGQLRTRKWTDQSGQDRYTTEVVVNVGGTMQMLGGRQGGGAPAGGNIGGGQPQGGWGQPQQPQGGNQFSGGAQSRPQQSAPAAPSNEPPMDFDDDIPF
Assay: fluorescence polarisation; 15 nM flu-CTP titrated with SSB or SSBdC; standard LLPS buffer (20 mM Tris-OAc pH 7.5, 50 mM KGlu, 5 mM Mg(OAc)2), no PEG; 25°C; quadratic binding equation
Settings: both partners purified

B1: fluorescein-labeled SSB C-terminal peptide (peptide)
peptide: fluorescein-MDFDDDIPF
notes: also called flu-CTP; labeled C-terminal peptide
B1 showed a Kd greater than 100 µM.
